According to patent US20200400662A1 (ALX ONCOLOGY, published 2020):

Target: Drug A
Assay: cell-based or functional assay

B1: Fab of Antibody B (Fab, V domains shown)
VH: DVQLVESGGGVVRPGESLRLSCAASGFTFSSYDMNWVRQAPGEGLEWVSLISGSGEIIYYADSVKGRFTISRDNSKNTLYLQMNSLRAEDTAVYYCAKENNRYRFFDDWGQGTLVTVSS
VL: ETVLTQSPGTLTLSPGERATLTCRASQSVYTYLAWYQEKPGQAPRLLIYGASSRATGIPDRFSGSGSGTEFTLTISSLQSEDFAVYYCQQYYDRPPLTFGGGTKVEIK
- hemagglutination of Drug A-coated erythrocytes with anti-IgG; molar excess of Fab that prevented it: 400 fold molar excess relative to Drug A
